Data: patent publication US20200347130A1 (JIANGSU HENGRUI MEDICINE, published 2020)

T1: Biotinylated CD96 antigen (human, UniProt P40200-2 22-503, limits assumed, biotinylated)
T1 sequence (looked up): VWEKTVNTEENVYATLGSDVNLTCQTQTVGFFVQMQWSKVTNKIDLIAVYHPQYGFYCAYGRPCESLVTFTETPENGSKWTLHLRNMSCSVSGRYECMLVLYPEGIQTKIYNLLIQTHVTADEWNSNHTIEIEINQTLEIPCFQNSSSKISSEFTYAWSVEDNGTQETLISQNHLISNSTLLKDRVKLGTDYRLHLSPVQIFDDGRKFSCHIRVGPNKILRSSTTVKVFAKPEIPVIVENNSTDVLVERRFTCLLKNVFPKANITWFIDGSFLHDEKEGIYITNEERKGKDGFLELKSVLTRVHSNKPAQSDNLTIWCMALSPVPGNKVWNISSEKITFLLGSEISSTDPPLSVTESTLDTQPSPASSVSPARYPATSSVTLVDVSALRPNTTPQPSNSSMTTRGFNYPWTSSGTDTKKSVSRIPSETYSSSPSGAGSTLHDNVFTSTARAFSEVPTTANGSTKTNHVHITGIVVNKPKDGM

T2: CD96 epitope peptide #3 IAVYHPQYGFYCAYGRPCES (47-66) (human)
T2 construct: also called 3# peptides; #3 antigen fragment
T2 peptide: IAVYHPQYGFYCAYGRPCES


Columns and labels:
[1] = molecular target: T1, Biotinylated CD96 antigen; assay: competition ELISA: antibody B pre-incubated with biotinylated CD96 antigen, added to a plate coated with antibody A, HRP-streptavidin, OD450; competitor: coated h1721-003
Protocol: (§1) Competitive assays of different antibodies binding to CD96 protein were used to classify binding epitopes of the antibodies. The specific experimental methods are as follows:
(§2) Antibody A was diluted to a concentration of 2 μg/ml with PBS buffer (Shanghai Yuanpei Biotechnology Co., Ltd. Cat No. B320), pH 7.4, added to a 96-well microtiter plate (Corning, Cat No. CLS3590-100EA) at a volume of 50 μl/well, and coated at 4° C. overnight. After discarding the liquid, 250 μl/well of 5% skim milk (BD skim milk, Cat No. 232100) blocking solution diluted with PBS was added, and the plate was incubated at 37° C. for 3 hours. After blocking, the blocking solution was discarded, and the plate was washed 5 times with PBST buffer (pH 7.4 PBS containing 0.05% tween-20) and stored for later use. Antibody B was diluted to 40 μg/ml and 8 μg/ml with 1% BSA, and Biotinylated CD96 antigen was simultaneously diluted to 4 μg/mL. Subsequently, antibody B and antigen were mixed in a 1:1 volume ratio, pre-incubated at 37° C. for 45 minutes, added into the enzyme plate coated with antibody A, thus incubating the plate in an incubator at 37° C. for 1.5 hours. After incubation, the plate was washed for 5 times with PBST, and 50 μl/well of HRP-labeled streptavidin (Sigma, Cat No. 52438) diluted with sample dilution was added, followed by incubating the plate at 37° C. for 1 hour. After washing the plate 5 times with PBST, 50 μl/well of TMB chromogenic substrate (KPL, Cat No. 52-00-03) was added for color development, followed by adding 50 μl/well of 1M H₂SO₄ to stop the reaction. The absorption value was read at 450 nm with a NOVOStar microplate reader, and the OD value was used to determine whether A and B CD96 antibodies compete with each other. Antibodies that compete with each other fall into the same class of antibodies, otherwise belong to different classes of antibodies (see FIG. 3 and Table 18).

[2] = molecular target: T1, Biotinylated CD96 antigen; assay: competition ELISA: antibody B pre-incubated with biotinylated CD96 antigen, added to a plate coated with antibody A, HRP-streptavidin, OD450; competitor: coated ch1720
Protocol: as §1, §2

[3] = molecular target: T1, Biotinylated CD96 antigen; assay: competition ELISA: antibody B pre-incubated with biotinylated CD96 antigen, added to a plate coated with antibody A, HRP-streptavidin, OD450; competitor: coated h1719-014 (named by the legend paragraph 84)
Protocol: as §1, §2

[4] = molecular target: T1, Biotinylated CD96 antigen; assay: competition ELISA, antibody B premixed with biotinylated CD96; competitor (coated antibody A): ch1720
Protocol: as §1, §2

[5] = molecular target: T1, Biotinylated CD96 antigen; assay: competition ELISA, antibody B premixed with biotinylated CD96; competitor (coated antibody A): h1722-010
Protocol: as §1, §2

[6] = molecular target: T1, Biotinylated CD96 antigen; assay: competition ELISA, antibody B premixed with biotinylated CD96; competitor (coated antibody A): h1719-014
Protocol: as §1, §2

[7] = molecular target: T1, Biotinylated CD96 antigen; assay: competition ELISA, antibody B premixed with biotinylated CD96; competitor (coated antibody A): h1721-003
Protocol: as §1, §2

[8] = molecular target: T2, CD96 epitope peptide #3 …; assay: FACS on CD96-CHOs cells after pre-incubation of the antibody with the peptide; a fall of the MFI against antibody alone shows that the peptide occupies the antibody
Protocol: In order to verify that the binding of the antibody to CD96 protein polypeptide fragment is specific, we designed the following FACS for verification. While polypeptide fragments were incubated and bound to an antibody, epitopes of the antibody binding to CD96 protein were occupied, and then the signal of the antibody binding to CD96 protein on the cell surface decreased. The specific experimental methods are as follows:
The antibody samples were diluted to 1.2 μg/mL with 1% BSA, and the peptides were diluted to 40 μg/mL synchronously. The peptides and antibody sample were mixed at a volume ratio of 1:1 and pre-incubated at 37° C. for 90 minutes. CD96-CHOs cells were collected and washed once in PBS, then dispensed according to 0.5×10⁶/test. The cells with 100 μL of peptide-antibody mixture were resuspended, incubated at 4° C. for 1 hour, followed by washing 3 times with 1% BSA. Cells were resuspended with 100 μL dilution (1:400, 1:40, 1:100) of Alexa Fluor 488 anti-human IgG Fc (thermofisher, A-11013), PE goat anti-mouse IgG (Biolegend, Cat No. 405307), or PE goat anti-Rat IgG (Biolegend, Cat No. 405406), incubated at 4° C. for 40 minutes, followed by washing 3 times with 1% BSA. The cells were resuspended with 200 μL of 1% BSA, MFI of each sample was read on a flow cytometer BD FACSCanto II, and the data were analyzed with GraphPad Prism 5 to make a histogram. MFI difference between the sample without polypeptides incubation and the one incubated with polypeptides was used to determine the antigenic epitope recognized by the CD96 antibody.

IC50 (read off the curve) [1] [pM]	IC50 (read off the curve) [2] [pM]	IC50 (read off the curve) [3] [pM]	competition (percent) [4] [%]	competition (percent) [5] [%]	competition (percent) [6] [%]	competition (percent) [7] [%]	binding result [8]	Binder
~400	~500	~400	–	–	–	–	–	h1719-010 (antibody, V domains shown, Only variable regions are tied to this name) VH: EVTLKESGPVLVKPTETLTLTCTVSGFSLSSYGVSWVRQPPGKGLEWLGVIWGDGNTNYHSVLISRLTISKDTSKSQVVLTLTNMDPVDTATYYCAKQNYYGSRYGYPIDYWGQGTTVTVSS VL: DIQMTQSPSSVSASVGDRVTITCKATQDVGTAVAWYQQKPGKAPKLLIYWASTRHTGVPSRFSGSGSGTDFTLTISSLQPEDFATYYCQQYGSSVLTFGGGTKVEIK
–	–	–	67.7	28.6	100	84.6	–	h1719-014 (antibody, V domains shown, Only variable regions are tied to this name; also called M719-014) VH: EVTLKESGPVLVKPTETLTLTCTVSGFSLSSYGVSWVRQPPGKGLEWLGVIWGDGNTNYHSVLISRLTISKDTSKSQVVLTLTNMDPVDTATYYCAKNYYYGSRYGYPLDYWGQGTTVTVSS VL: DIQMTQSPSSVSASVGDRVTITCKATQDVGTAVAWYQQKPGKSPKLLIYWASTRHTGVPERFSGSGSGTDFTLTISSLQPEDFATYFCQQYGSSVLTFGGGTKVEIK
~400	~400	~400	92.6	-0.3	96	100	–	h1721-003 (antibody, V domains shown, Only variable regions are tied to this name; also called M721-003) VH: EVTLKESGPVLVKPTETLTLTCTVSGFSLSSYGVNWIRQPPGKALEWLGVIWGDGSTNYHSALISRLTISKDTSKSQVVLTLTNMDPVDTATYYCAKNYFYGSRYGYAMDSWGQGTTVTVSS VL: DIQMTQSPSSLSASVGDRVTITCRASENIYSSLAWYQQKPGKAPKLLIYNAKTLIEGVPSRFSGSGSGTDFTLTISSLQPEDFATYYCQHHYGTPYTFGGGTKVEIK
–	–	~1000	100	-2.4	92.3	98.7	–	ch1720 (antibody, human IgG4 S228P, kappa, V domains shown, also called chimeric antibody corresponding to m1720) VH: EFQLQQSGPELVKPGASVKISCKASAYSLTDYNMNWVKQSNGKSLEWIGVINPSYGISSYNQKFKGKATLTVDQSSSTAYMHLNSLTSEDSAVYYCARQLRLPGYFDVWGTGTTVTVSS VL: DIKMTQSPSSKNASLGERVTITCKASQDINSYLNWFQQKPGKSPKTLIYRASRLVDGVPSRFSGSGSGQDYSLTISSLEYEDMGIYYCLKYDEFPYTFGGGTKLEIKR
–	–	–	–	–	–	–	binds	ch1718 (antibody, human IgG4 S228P, kappa, V domains shown, also called chimeric antibody corresponding to m1718) VH: EFQLQQSGPELVKPGASVKISCKASAYSITDYNMNWVKQSNGKSLEWIGVINPSYGITDYNQNFKDKATLTVDQSSSTAYMQLNSLTSEDSAVYYCAIQLRLPGYFDVWGTGTTVIVSS VL: DIKMTQSPSSMYASLGERVTITCKASQDINNYLNWFQQKPGKSPKTLIYRANRLVDGVPSRFSGSGSGQDYSLTISSLEYEDMGIYYCLKYDEFPYTFGGGTKVEIKR
~400	~500	~400	103	-11.1	94.8	103	–	h1718-012 (antibody, V domains shown, Only variable regions are tied to this name) VH: EVQLVQSGAEVKKPGASVKVSCKASGYTITDYNMNWVRQAPGQRLEWIGVINPSYGITDYNQNFKDRVTITVDTSASTAYMELSSLRSEDTAVYYCAIQLRLPGYFDVWGQGTTVTVSS VL: DIQMTQSPSSLSASVGDRVTITCKASQDINQYLNWFQQKPGKAPKTLIYRANRLVDGVPSRFSGSGSGQDYTLTISSLQPEDFATYYCLKYDEFPYTFGGGTKVEIK
–	–	–	-11.5	100	8.5	-8.5	–	h1722-010 (antibody, V domains shown, Only variable regions are tied to this name; also called M722-010) VH: EVQLVQSGAEVKKPGSSVKVSCKASGGTFSDYWMHWVRQAPGQGLEWIGMLHPNSGTTSFNEKFKIRVTITADKSTSTAYMELSSLRSEDTAVYYCASDYSGPFAYWGQGTLVTVSS VL: DIQLTQSPSSLSASVGDRVTITCSASSSVNYIHWYQQKPGKAPKRWIFDTSKLASGVPSRFSGSGSGTDYTLTISSLQPEDFATYYCQQWRSNPLTFGQGTKLEIK
–	–	–	–	–	–	–	binds	ch1719 (antibody, human IgG4 S228P, kappa, V domains shown, also called chimeric antibody corresponding to m1719) VH: QVQLKESGPGLVAPSQSLSITCTVSGFSLISYGVSWVRQPPGKGLEWLGVIWGDGNTNYHSVLISRLSIRKDDSKSQVFLKLNSLQTDDTATYYCAKNNYYGSRYGYPMDYWGQGTSVTVSS VL: DIVMTQSHKFMSTSVGDRVSITCKATQDVGTAVAWYQQKPGHSPKLLIYWASTRHTGVPERFTGSGSGTDFTLTIDNVQSEDLADYFCQQYGSSVLTFGAGTKVELRR
–	–	–	–	–	–	–	binds	ch1721 (antibody, human IgG4 S228P, kappa, V domains shown, also called chimeric antibody corresponding to m1721) VH: QVQLKESGPGLVAPSQSLSITCTVSGFSLISYGVNWVRQPPGKGLEWLGVIWGDGSTNYHSALISRLSISKDDSKSQVFLNLNSLQTDDTATYYCAKNYFYGSRYGYAMDSWGQGISVTVSS VL: DIQMTQSPASLSAAVGETVTITCRASENIYSSLAWYQQKQGKSPQLLVYNAKTLIETVASRFSGSGSGTQYSLKINSLQPEDFGSFYCQHHYGTPYTFGGGTKLEIKR
